Data reported in IntAct's records for PubMed 9422760.

B1: Proline-serine-threonine phosphatase-interacting protein 1 (Homo sapiens), O43586 (parent)
chain: MMPQLQFKDAFWCRDFTAHTGYEVLLQRLLDGRKMCKDMEELLRQRAQAEERYGKELVQIARKAGGQTEINSLRASFDSLKQQMENVGSSHIQLALTLREELRSLEEFRERQKEQRKKYEAVMDRVQKSKLSLYKKAMESKKTYEQKCRDADDAEQAFERISANGHQKQVEKSQNKARQCKDSATEAERVYRQSIAQLEKVRAEWEQEHRTTCEAFQLQEFDRLTILRNALWVHSNQLSMQCVKDDELYEEVRLTLEGCSIDADIDSFIQAKSTGTEPPAPVPYQNYYDREVTPLTSSPGIQPSCGMIKRFSGLLHGSPKTTSLAASAASTETLTPTPERNEGVYTAIAVQEIQGNPASPAQEYRALYDYTAQNPDELDLSAGDILEVILEGEDGWWTVERNGQRGFVPGSYLEKL
partner: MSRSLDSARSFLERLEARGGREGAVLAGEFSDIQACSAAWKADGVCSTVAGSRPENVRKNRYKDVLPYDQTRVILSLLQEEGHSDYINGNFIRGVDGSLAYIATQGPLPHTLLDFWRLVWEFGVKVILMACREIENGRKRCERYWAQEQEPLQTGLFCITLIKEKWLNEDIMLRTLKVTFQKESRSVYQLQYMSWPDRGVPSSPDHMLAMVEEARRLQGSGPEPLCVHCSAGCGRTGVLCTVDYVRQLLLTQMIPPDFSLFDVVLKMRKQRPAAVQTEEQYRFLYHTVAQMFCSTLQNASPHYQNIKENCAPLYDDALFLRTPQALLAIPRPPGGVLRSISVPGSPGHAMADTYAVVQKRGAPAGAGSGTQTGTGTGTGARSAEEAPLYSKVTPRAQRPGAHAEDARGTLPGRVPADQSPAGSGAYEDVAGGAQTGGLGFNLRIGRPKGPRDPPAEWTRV
B2: Tyrosine-protein phosphatase non-receptor type 18 (Homo sapiens), Q99952 (parent)
chain: B1 partner

Variants of: B1
Conditions: with ptn18_human PTPN18, Q99952
With W232A the “effect of a mutation on the interaction” value was “disrupting interaction”.

Variants of: B2
Conditions: with ppip1_human PSTPIP1, O43586
With MSRSLDSARSFLERLEARGGREGAVLAGEFSDIQACSAAWKADGVCSTVAGSRPENVRKNRYKDVLPYDQTRVILSLLQEEGHSDYINGNFIRGVDGSLAYIATQGPLPHTLLDFWRLVWEFGVKVILMACREIENGRKRCERYWAQEQEPLQTGLFCITLIKEKWLNEDIMLRTLKVTFQKESRSVYQLQYMSWPDRGVPSSPDHMLAMVEEARRLQGSGPEPLCVHSSAGCGRTGVLCTVDYVRQLLLTQMIPPDFSLFDVVLKMRKQRPAAVQTEEQYRFLYHTVAQMFCSTLQNASPHYQNIKENCAPLYDDALFLRTPQALLAIPRPPGGVLRSISVPGSPGHAMADTYAVVQKRGAPAGAGSGTQTGTGTGTGARSAEEAPLYSKVTPRAQRPGAHAEDARGTLPGRVPADQSPAGSGAYEDVAGGAQTGGLGFNLRIGRPKGPRDPPAEWTRV [C229S] the “effect of a mutation on the interaction” value was “increasing interaction”.

Variants of: B2
Conditions: with ppip1_human PSTPIP1, O43586
Remark: another data set of the same source
With MSRSLDSARSFLERLEARGGREGAVLAGEFSDIQACSAAWKADGVCSTVAGSRPENVRKNRYKDVLPYDQTRVILSLLQEEGHSDYINGNFIRGVDGSLAYIATQGPLPHTLLDFWRLVWEFGVKVILMACREIENGRKRCERYWAQEQEPLQTGLFCITLIKEKWLNEDIMLRTLKVTFQKESRSVYQLQYMSWPDRGVPSSPDHMLAMVEEARRLQGSGPEPLCVHCSAGCGRTGVLCTVDYVRQLLLTQMIPPDFSLFDVVLKMRKQRPAAVQTEEQYRFLYHTVAQMFCSTLQNASPHYQNIKENCAPLYDDALFLRTPQALLAIPRPPGGVLRSISVPGSPGHAMADTYAVVQKRGAPAGAGSGTQTGTGTGTGARSAEEAPLYSKVTPRAQRPGAHAEDARGTLPGRVPADQSPAGSGAYEDVAGGAQTGGLGFNLRIGRAKGPRDPPAEWTRV [P447A] the “effect of a mutation on the interaction” value was “disrupting interaction”.
